Measured values published in article PMC2699145 (The Journal of Cell Biology, 2009).
One block for each binder: values may come before it.

B3: MBP-tagged RIL (natural protein, human, UniProt P50479 1-330, looked up)
chain: MPHSVTLRGPSPWGFRLVGGRDFSAPLTISRVHAGSKAALAALCPGDLIQAINGESTELMTHLEAQNRIKGCHDHLTLSVSRPEGRSWPSAPDDSKAQAHRIHIDPEIQDGSPTTSRRPSGTGTGPEDGRPSLGSPYGQPPRFPVPHNGSSEATLPAQMSTLHVSPPPSADPARGLPRSRDCRVDLGSEVYRMLREPAEPVAAEPKQSGSFRYLQGMLEAGEGGDWPGPGGPRNLKPTASKLGAPLSGLQGLPECTRCGHGIVGTIVKARDKLYHPECFMCSDCGLNLKQRGYFFLDERLYCESHAKARVKPPEGYDVVAVYPNAKVELV

How the values were obtained:
Assay in all cases: pull-down
[1] = target: B3
[2] = target: pY419 Src (MBP-Src phosphorylated at Y419) (UniProt P12931 1-536, phosphotyrosine at 419)
[3] = target: maltose-binding protein (MBP)-tagged Src protein (UniProt P12931 1-536)
[4] = target: GST-tagged Src (UniProt P12931 1-536)

binding result [1]: binds
B1: GST fusion protein containing the kinase domain of Src (residues 249-536) (domain or fragment, UniProt P12931 249-536, looked up)
chain: PTSKPQTQGLAKDAWEIPRESLRLEVKLGQGCFGEVWMGTWNGTTRVAIKTLKPGTMSPEAFLQEAQVMKKLRHEKLVQLYAVVSEEPIYIVTEYMSKGSLLDFLKGETGKYLRLPQLVDMAAQIASGMAYVERMNYVHRDLRAANILVGENLVCKVADFGLARLIEDNEYTARQGAKFPIKWTAPEAALYGRFTIKSDVWSFGILLTELTTKGRVPYPGMVNREVLDQVERGYRMPCPPECPESLHDLMCQCWRKEPEERPTFEYLQAFLEDYFTSTEPQYQPGENL

binding result [2]: binds
binding result [3]: binds
B2: GST-RIL (reversion-induced LIM) (natural protein, human, UniProt P50479 1-330, looked up)
chain: MPHSVTLRGPSPWGFRLVGGRDFSAPLTISRVHAGSKAALAALCPGDLIQAINGESTELMTHLEAQNRIKGCHDHLTLSVSRPEGRSWPSAPDDSKAQAHRIHIDPEIQDGSPTTSRRPSGTGTGPEDGRPSLGSPYGQPPRFPVPHNGSSEATLPAQMSTLHVSPPPSADPARGLPRSRDCRVDLGSEVYRMLREPAEPVAAEPKQSGSFRYLQGMLEAGEGGDWPGPGGPRNLKPTASKLGAPLSGLQGLPECTRCGHGIVGTIVKARDKLYHPECFMCSDCGLNLKQRGYFFLDERLYCESHAKARVKPPEGYDVVAVYPNAKVELV

Binder: B3
binding result [4]: binds
